# Assay results published in patent publication EP4582447A1 (Quaerite Biopharm Research (Beijing) Co., Ltd., dated 2025).
# Positions count from the first letter of the chain named.
# B1: V36 (VHH)
# VHH: QLQLVESGGGSVQPGGSLRLSCEVSGRTFASYTMGWFRQAPGKEREFVVAISKGGYKYDSVSLEARFTISKDNTKNTVYLQMNSLKPEDTAVYYCAGTRAYGSSRLRLADTYEYWGQGTQVTVSS
# notes: Purified with C-terminal GGGGS-6×His
# B2: V43 (VHH)
# VHH: B1 VHH with A30T, D110N
# notes: as for B1
# B3: V30 (VHH)
# VHH: B1 VHH with A30S, E44G, S60A, G97A, D110K
# notes: Purified with C-terminal GGGGS-6×His; also called candidate antibody V30
# B4: V41 (VHH)
# VHH: B1 VHH with A30S, D110K
# notes: as for B1
# B5: V33 (VHH)
# VHH: B1 VHH with A30S, G97A, D110K
# notes: as for B1
# B6: V29 (VHH)
# VHH: B1 VHH with A30S, D110N
# notes: as for B1
# B7: V31 (VHH)
# VHH: B1 VHH with S60A, D110K
# notes: as for B1
# B8: V40 (VHH)
# VHH: B1 VHH with A30T, D59N, S60A, D110K
# notes: as for B1
# B9: V17 (VHH)
# VHH: B1 VHH with A30S, S60T, G97A, D110K
# notes: as for B1
# B10: V14 (VHH)
# VHH: B1 VHH with A30T, D59N, S60T, D110N
# notes: as for B1
# B11: V21 (VHH)
# VHH: B1 VHH with A30T, D59N, S60T, D110E
# notes: as for B1
# B12: V13 (VHH)
# VHH: B1 VHH with A30T, S60A
# notes: Purified with C-terminal GGGGS-6×His; also called candidate antibody V13
# B13: V22 (VHH)
# VHH: B1 VHH with A30S, G97A, R107K
# B14: V19 (VHH)
# VHH: B1 VHH with A30S, D59N, G97A, R107K, D110N
# B15: V8 (VHH)
# VHH: B1 VHH with A30S, D59N, S60T, R107K, D110E
# B16: V25 (VHH)
# VHH: B1 VHH with A30T, Q39R, R107K, D110K
# B17: V18 (VHH)
# VHH: B1 VHH with A30S, D59N
# B18: V6 (VHH)
# VHH: B1 VHH with A30S, S60T, R107K
# B19: V43-3H-78 (VHH)
# VHH: EVQLVESGGGLVQPGGSLRLSCAASGRTFTSYTMGWFRQAPGKEREFVVAISKGGYKYDSVSLEARFTISRDNSKNTVYLQMNSLRAEDTAVYYCAGTRAYGSSRLRLANTYEYWGQGTLVTVSS
# notes: Humanized V43
# B20: V43-3H-87 (VHH)
# VHH: B19 VHH with V78L, A87P
# notes: Humanized V43
# B21: V15-2m (VHH)
# VHH: B19 VHH with T30A, A87P, N110E
# notes: Humanized V15
# B22: V1-com-78 (VHH)
# VHH: B19 VHH with T30S, G97A, N110D
# notes: Humanized V1
# B23: V15-4m (VHH)
# VHH: B19 VHH with T30A, S74A, A87P, N110E
# notes: Humanized V15
# B24: V1-2m (VHH)
# VHH: B19 VHH with T30S, A87P, G97A, N110D
# notes: Humanized V1
# B25: V1-com-87 (VHH)
# VHH: B19 VHH with T30S, V78L, A87P, G97A, N110D
# notes: Humanized V1
# B26: V40-3H-4m (VHH)
# VHH: B19 VHH with T30S, D59N, S60A, S74A, A87P, G97S, N110K
# notes: Humanized V40
# B27: V40-4H-4m (VHH)
# VHH: B19 VHH with D59N, S60A, S74A, A87P, G97S, N110K
# notes: Humanized V40
# B28: V40-3H-2m (VHH)
# VHH: B19 VHH with T30S, D59N, S60A, A87P, G97A, N110K
# notes: Humanized V40
# B29: V40-4H-2m (VHH)
# VHH: B19 VHH with D59N, S60A, A87P, G97A, N110K
# notes: Humanized V40
# B30: V30-3H-2m (VHH)
# VHH: B19 VHH with T30S, E44G, S60A, A87P, G97A, N110K
# notes: Humanized V30
# Biological target: T1, Human VEGFA165 (human, UniProt P15692-4 27-191)
# T1 construct: treated as the same molecule; also called antigen VEGFA
# Experiment: phage ELISA, VEGFA coated 0.5 µg/mL, anti-M13(HRP)
# Target sequence in this assay (P15692 other isoform, or with tags, fused parts or gaps limits assumed): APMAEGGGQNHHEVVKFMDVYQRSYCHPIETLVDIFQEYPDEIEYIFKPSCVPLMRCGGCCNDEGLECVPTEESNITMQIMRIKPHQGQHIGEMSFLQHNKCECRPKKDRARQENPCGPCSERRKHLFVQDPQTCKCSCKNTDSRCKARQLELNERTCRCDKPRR
row,OD450 [OD450],Molecule
1,2.77,B1
2,2.5,B2
3,2.68,B3
4,2.77,B4
5,2.53,B5
6,2.69,B6
7,2.67,B7
8,3.11,B8

# Biological target: T1, Human VEGFA165
# Experiment: competition ELISA on coated VEGFA, competitor VEGFR2-ECD-Fc 1 nM
# Target sequence in this assay (P15692 other isoform, or with tags, fused parts or gaps limits assumed): as above
IC50 [nM],Maximum inhibition rate (%),Molecule
16.3,80.4,B9
4.72,96.3,B1
6,93.7,B2
3.54,96.5,B3
3.91,96.3,B5
2.98,95.3,B6
2.07,97.5,B7
7.48,92.2,B8
4.58,94.9,B10
4.62,88.3,B11

# Biological target: T1, Human VEGFA165
# Experiment: cell-based or functional assay
# Target sequence in this assay (P15692 other isoform, or with tags, fused parts or gaps limits assumed): as above
Maximum inhibition rate (%) of HUVEC proliferation [%],"IC50 (pM), inhibition of VEGFA-stimulated HUVEC proliferation (CCK-8) [pM]",Molecule
0,,negative control antibody (nanobody binding to an irrelevant antigen) (VHH)
94.7,3940,B12
87.4,1270,B3

# Biological target: T1, Human VEGFA165
# Experiment: SPR, VEGFA165 on CM5
row,fold difference of KD from the positive control BI-VEGF ab [fold],Molecule
1,< 3,B1
2,< 3,B2
3,< 3,B12
4,< 3,B3
5,< 3,B4
6,< 3,B5
7,< 3,B6
8,< 3,B7
9,< 3,B8

# Biological target: T1, Human VEGFA165
# Experiment: phage ELISA, VEGFA coated 0.5 µg/mL, anti-M13(HRP)
# Remark: another data set of the same source
# Target sequence in this assay (P15692 other isoform, or with tags, fused parts or gaps limits assumed): as above
row,OD450 [OD450],Molecule
1,1.64,B13
2,2.47,B14
3,0.924,B15
4,1.29,B16
5,2.94,B17
6,1.36,B18

# Biological target: T1, Human VEGFA165
# Experiment: competition ELISA on coated VEGFA, competitor VEGFR2-ECD-Fc 1 nM
# Remark: another data set of the same source
# Target sequence in this assay (P15692 other isoform, or with tags, fused parts or gaps limits assumed): as above
IC50 [nM],Maximum inhibition rate (%),Molecule
5.72,94.8,B3
8.63,93.4,B19
7.15,91.6,B20

# Biological target: T1, Human VEGFA165
# Experiment: phage ELISA, VEGFA coated 0.5 µg/mL, anti-M13(HRP)
# Remark: another data set of the same source
# Target sequence in this assay (P15692 other isoform, or with tags, fused parts or gaps limits assumed): as above
row,OD450 [OD450],Molecule
1,3.47,B9
2,2.14,B12
3,2.03,B10
4,2.15,B11

# Biological target: T1, Human VEGFA165
# Experiment: competition ELISA on coated VEGFA, competitor VEGFR2-ECD-Fc 2 nM
IC50 [nM],Maximum inhibition rate (%),Molecule
31.7,84.8,B21
28.5,93.7,B22
26,87.2,B23

# Biological target: T1, Human VEGFA165
# Experiment: SPR Biacore 8K, VEGFA165 amine-coupled on CM5, nanobody as analyte, 1:1 model
Kd [nM],koff [s⁻¹],kon [M⁻¹ s⁻¹],Molecule
0.243,8.24e-05,339000,B24
0.257,8.91e-05,347000,B22
0.252,9.08e-05,360000,B25

# Biological target: T1, Human VEGFA165
# Experiment: as above
# Remark: another data set of the same source
Kd [nM],koff [s⁻¹],kon [M⁻¹ s⁻¹],Molecule
0.285,0.00012,419000,B1
0.193,8.09e-05,418000,B2
0.224,8.65e-05,386000,B12
0.214,0.000136,635000,B3
0.482,0.00016,331000,B4
0.522,0.000168,323000,B5
0.436,0.000127,291000,B6
0.62,0.000172,277000,B7
0.305,0.000108,353000,B8

# Biological target: 3% milk powder (negative control)
# Experiment: phage ELISA, 3% milk powder coated (negative control), anti-M13(HRP)
row,OD450 [OD450],Molecule
1,0.0353,B13
2,0.0403,B9
3,0.0623,B1
4,0.0519,B2
5,0.0144,B12
6,0.0436,B3
7,0.0359,B4
8,0.0489,B5
9,0.0553,B6
10,0.0363,B7
11,0.0273,B14
12,0.0236,B15
13,0.0354,B16
14,0.0362,B8
15,0.0252,B10
16,0.0186,B11
17,0.0134,B17
18,0.0473,B18

# Biological target: T1, Human VEGFA165
# Experiment: ELISA, VEGFA coated 0.3 µg/mL, anti-His detection
row,EC50 [nM],Molecule
1,0.36,B1
2,0.53,B2
3,0.6,B3
4,0.57,B4
5,0.64,B5
6,0.77,B6
7,0.67,B7
8,0.84,B8

# Biological target: T1, Human VEGFA165
# Experiment: ELISA, VEGFA coated 0.3 µg/mL, anti-His detection
# Remark: another data set of the same source
row,EC50 [nM],Molecule
1,2.05,B26
2,2.34,B27
3,1.64,B28
4,2.04,B21
5,2.82,B29
6,1.42,B23
7,1.38,B30
8,2.03,B8
